System: azocasein
Assay: Stability of Et-trypsin and trypsin in a disinfecting composition (Example 2B), azocasein method
Format: physicochemical
Settings: 37° C., Example 2B composition, 50 μg/ml
Description: Azocasein Method The following solutions are used in this assay: 1) Buffer solution: 0.05 M sodium phosphate buffer containing 0.9% sodium chloride, pH 7.6. 2) Substrate solution: 2 mg/ml azocasein in the buffer solution mentioned above. The assay is initiated by mixing 1 ml of an appropriately diluted (such that the enzyme activity is in the range of standard curve) enzyme composition in phosphate buffer with 2 ml of azocasein substrate solution (2 mg/ml). After incubation at 37° C. for 20 minutes, the mixture is removed from the incubator and 1 ml of trichloroacetic acid to (14% w/v) is added to stop the enzyme reaction. The mixture is vortexed well and allowed to stand at room temperature for 20 minutes. After centrifuging at 2500 rpm (with a Beckman GS-6R Centrifuge) for 15 minutes, the supernatant is filtered with a serum sampler. 2 ml of the clear yellow filtrate is then adjusted to a neutral pH with 2 ml of 0.5 N sodium hydroxide and the absorbance of 440 nm wavelength light is measured with a spectrophotometer. The amount of azocasein hydrolyzed is calculated based on a standard curve of known concentrations of azocasein solution developed under identical conditions. An enzyme activity unit (“AZ U”) is defined as that amount of enzyme which hydrolyzes 1 μg of azocasein substrate/minute at 37° C. The following is an example of the stability of Et-trypsin or Me-trypsin in a disinfecting composition of the present invention as compared to an analogous composition containing trypsin. The enzymes were solubilized in the Example 2B composition. The compositions were stored at 37° or 50° C. for 8 days or 30 hours, respectively. At various time points, enzyme activity was assayed using the azocasein method.

Trypsin [Native Trypsin, reference compound]
% Activity Remaining (1 Hour): 86.8%
% Activity Remaining (2 Hours): 80.0%
% Activity Remaining (4 Hours): 72.7%
% Activity Remaining (6 Hours): 62.9%
% Activity Remaining (8 Hours): 56.6%
% Activity Remaining (1 day): 37.6%
% Activity Remaining (2 days): 26.8%
% Activity Remaining (4 days): 17.9%
% Activity Remaining (8 days): 11.2%
